Reference: publication PMC2944003

Target: human complement receptor 3 (CR3) on CR3-transfected CHO cells (CHO/CR3) (human) (UniProt P11215)
Assay: flow cytometry on cells

Chain of fH SCRs 6–10 fused to the Fc fragment of murine IgG2a (Fc fusion) (P08603 19-1231): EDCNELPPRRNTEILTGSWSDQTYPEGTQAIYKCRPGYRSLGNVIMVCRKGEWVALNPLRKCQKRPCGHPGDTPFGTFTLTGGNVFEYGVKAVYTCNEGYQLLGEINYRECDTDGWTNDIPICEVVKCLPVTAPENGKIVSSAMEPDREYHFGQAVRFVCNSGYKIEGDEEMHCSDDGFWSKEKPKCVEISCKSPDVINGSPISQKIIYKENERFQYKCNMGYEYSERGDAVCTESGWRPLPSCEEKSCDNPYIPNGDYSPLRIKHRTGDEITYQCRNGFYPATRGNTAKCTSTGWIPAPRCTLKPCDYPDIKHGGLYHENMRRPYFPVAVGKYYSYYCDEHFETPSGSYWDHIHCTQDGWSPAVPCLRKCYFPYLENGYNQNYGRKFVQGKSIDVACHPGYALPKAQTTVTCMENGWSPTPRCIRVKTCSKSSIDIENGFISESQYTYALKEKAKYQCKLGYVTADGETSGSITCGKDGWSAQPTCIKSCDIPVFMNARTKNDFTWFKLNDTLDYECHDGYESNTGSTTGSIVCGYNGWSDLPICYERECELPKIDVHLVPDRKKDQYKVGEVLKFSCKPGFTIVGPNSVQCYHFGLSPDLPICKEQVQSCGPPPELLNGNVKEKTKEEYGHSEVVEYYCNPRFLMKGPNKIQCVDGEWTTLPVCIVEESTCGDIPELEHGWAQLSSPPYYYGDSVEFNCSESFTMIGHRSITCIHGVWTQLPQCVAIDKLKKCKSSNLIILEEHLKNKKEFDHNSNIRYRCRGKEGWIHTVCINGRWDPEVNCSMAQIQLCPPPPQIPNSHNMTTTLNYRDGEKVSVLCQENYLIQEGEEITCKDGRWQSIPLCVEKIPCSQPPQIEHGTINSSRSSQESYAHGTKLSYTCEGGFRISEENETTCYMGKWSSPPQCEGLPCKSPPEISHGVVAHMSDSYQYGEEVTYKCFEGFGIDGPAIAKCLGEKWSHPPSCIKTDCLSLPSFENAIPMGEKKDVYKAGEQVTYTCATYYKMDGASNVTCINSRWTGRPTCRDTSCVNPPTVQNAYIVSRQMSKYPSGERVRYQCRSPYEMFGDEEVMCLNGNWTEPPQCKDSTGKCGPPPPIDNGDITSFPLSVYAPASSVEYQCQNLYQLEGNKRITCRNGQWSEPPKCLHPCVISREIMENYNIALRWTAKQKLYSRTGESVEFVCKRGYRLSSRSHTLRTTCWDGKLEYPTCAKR
Chain of fH SCRs 16–20 fused to the Fc fragment of murine IgG2a (Fc fusion) (P08603 19-1231): as above
Chain of fH SCRs 18–20 fused to the Fc fragment of murine IgG2a (Fc fusion) (P08603 19-1231): as above

fH SCRs 6–10 fused to the Fc fragment of murine IgG2a (Fc fusion)
fold increase in fluorescence over control levels: 3 fold

fH SCRs 16–20 fused to the Fc fragment of murine IgG2a (Fc fusion)
fold increase in fluorescence over control levels: 15 fold

fH SCRs 18–20 fused to the Fc fragment of murine IgG2a (Fc fusion)
fold increase in fluorescence over control levels: 30 fold
